Assay results taken from US20210269525A1 (BIOCYTOGEN PHARMACEUTICALS BEIJING, published 2021).
Numbering of substitutions follows the chain as printed. Where two headings read alike, the source gives them in different places.

T1: Cynomolgus CD3 epsilon Protein, His Tag (Acrobiosystems, Cat #CDE-05226) (cynomolgus (Macaca fascicularis), UniProt Q95LI5 22-117)
T1 construct: also called monkey CD3e; not shown: His tag
T1 sequence: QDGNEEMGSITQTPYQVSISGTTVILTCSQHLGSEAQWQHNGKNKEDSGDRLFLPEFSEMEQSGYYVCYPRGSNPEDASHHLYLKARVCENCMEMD

B1: 10A4-H1K2-IgG1-LALA (antibody, V domains shown)
VH: QVQLVQSGAEVKKPGASVKVSCKASGYTFTSYYIHWVRQAPGQRLEFIGWIYPGNVNAKYNEKFKGRVTITTDKSASTAYMELSSLRSEDTAVYYCAIKGGNYDWGQGTLVTVSS
VL: DVVMTQSPLSLPVTLGQPASISCQSSQSLLDSDGKTYLNWLQQRPGQSPRRLIYLVSKLGSGVPDRFSGSGSGTDFTLKISRVEAEDVGVYYCWQGTHFPRTFGGGTKLEIK
notes: Humanized; human IgG1 with LALA mutations; also called H1K2 (humanized 10A4)
B2: 1B1-H3K1-IgG1-LALA (antibody, V domains shown)
VH: QVQLVQSGAEVKKPGASVKLSCKASGYTFTSYWMHWVRQRHGQGLEWIGNIYPDSGTTNYGEKFKTRVTLTVDTSTSTAYMELSSLRSEDTAVYYCTRDTSGQYYFDYWGQGTLVTVSS
VL: DIVMTQSPDSLAVSAGERATMNCKSSQSLLNSRTRKNYLAWYQHKPGQSPKLLIYWASTRESGVPDRFSGSGSGTDFTLTISSLQAEDVAVYYCVQSFSLRAFGGGTKVEIK
notes: Humanized; human IgG1 with LALA mutations; also called H3K1 (humanized 1B1)
B3: 1B1-H3K2-IgG1-LALA (antibody, V domains shown)
VH: B2 VH
VL: B2 VL with A19V
notes: Humanized; human IgG1 with LALA mutations; also called H3K2 (humanized 1B1)
B4: 1B1-H4K3-IgG1-LALA (antibody, V domains shown)
VH: B2 VH with K12V, V68G
VL: B2 VL with A19V, L84V, V109L
notes: Humanized; human IgG1 with LALA mutations; also called H4K3 (humanized 1B1)
B5: 1B1-H4K2-IgG1-LALA (antibody, V domains shown)
VH: B2 VH with K12V, V68G
VL: B2 VL with A19V
notes: Humanized; human IgG1 with LALA mutations; also called H4K2 (humanized 1B1)
B6: 1B1-H4K1-IgG1-LALA (antibody, V domains shown)
VH: B2 VH with K12V, V68G
VL: B2 VL
notes: Humanized; human IgG1 with LALA mutations; also called H4K1 (humanized 1B1)

Key:
[1] = target: T2, human CD3e (T-cell surface glycoprotein CD3 epsilon chain) (human, UniProt P07766 23-207); test: flow cytometry, human PBMC, antibody 0.01 ug/mL, anti-human IgG Fc-Alexa Fluor647 (1:500), anti-hTcRβ-PerCP (1:30)
T2 construct: Target of the anti-hCD3e antibodies on human PBMC, Jurkat cells and cells expressing human CD3e; on T cells it is part of the CD3/TCR complex; also called hCD3e; CD3e on human PBMC
Method: (§1) PBMC cells were collected from a human subject. After being thawed, the cells were cultured for 3-4 hours. The medium was then discarded, and the cells were resuspended in phosphate-buffered saline (PBS). The cell concentration was then adjusted to 2×10⁶/25 μl PBS.
(§2) A 96-well plate was prepared. 25 ul of cell suspension was added to each well. […] The cells and the antibodies were incubated. After centrifuge, the residues were discarded. The samples were washed again. 25 ul of PBS was then added to each well to resuspend cells.
(§3) Anti-human IgG Fc-Alexa Fluror647 (1:500) and anit-hTcRβ PerCP (1:30) were then added to each well. The cells and the antibodies were incubated and then the cells were washed again by PBS. 300 ul of PBS was then added to each well to resuspend the cells. FACS was performed.

[2] = target: T2, human CD3e (T-cell surface glycoprotein …); test: flow cytometry, human PBMC, antibody 0.1 ug/mL, anti-human IgG Fc-Alexa Fluor647 (1:500), anti-hTcRβ-PerCP (1:30)
Method: as §1, §2, §3

[3] = target: T2, human CD3e (T-cell surface glycoprotein …); test: cell-based or functional assay
[4] = target: T2, human CD3e (T-cell surface glycoprotein …); test: flow cytometry, human PBMC, antibody 1 ug/mL, anti-human IgG Fc-Alexa Fluor647 (1:500), anti-hTcRβ-PerCP (1:30)
Method: as §1, §2, §3

[5] = target: T1, Cynomolgus CD3 epsilon Protein, His Tag …; test: SPR (Biacore), cynomolgus CD3e His tag
Method: The binding affinity of the anti-hCD3e antibodies with monkey CD3e (Cynomolgus CD3 epsilon Protein (SEQ ID NO: 39 AA Gln 22-Asp 117), His Tag, Acrobiosystems, Cat #CDE-05226) were also measured using surface plasmon resonance (SPR) using Biacore (Biacore, INC, Piscataway N.J.) by the methods as described in the examples.

[6] = target: T3, Histidine-tagged human CD3e protein (human, UniProt P07766 23-126); test: SPR (Biacore), human CD3e
T3 construct: also called hCD3e-His; not shown: His tag

[7] = target: T4, monkey CD3e (Macaca fascicularis) on PBMC (Macaca fascicularis, UniProt Q95LI5 22-198); test: flow cytometry, Macaca fascicularis PBMC, antibody concentration not given, anti-human IgG Fc-Alexa Fluor647 (1:500), anti-hTcRβ-PerCP (1:30)
T4 construct: Target on PBMC from Macaca fascicularis; also called mfCD3e; monkey PBMC
Method: A 96-well plate was prepared. 25 ul of cell suspension was added to each well. Anti-hCD3 antibodies were added to the 96-well plate. The cells and the antibodies were incubated for 15 minutes at 4° C. 185 ul PBS was then added to each well. After centrifuge at 2000 rpm for 5 minutes, the medium was discarded. The samples were washed again. 25 ul of PBS was then added to resuspend cells.
Anti-human IgG Fc-Alexa Fluror647 (1:500) and anti-hTcRβ PerCP (1:30) were then added to each well. The cells and the antibodies were incubated for 15 minutes at 4° C. 185 ul PBS was then added to each well. After centrifuge, the residues were discarded. The samples were washed again. 25 ul of PBS was then added to resuspend cells. […] In contrast, anti-hTcRβ PerCP cannot bind to monkey PBMC.

[8] = target: T2, human CD3e (T-cell surface glycoprotein …); test: cell-based or functional assay; remark: listed apart in the source
[9] = target: T2, human CD3e (T-cell surface glycoprotein …); test: flow cytometry, human PBMC, antibody 1 µg/mL, anti-human IgG Fc-Alexa Fluor647 (1:500), anti-hTcRβ-PerCP (1:30)
Method: as §1, §2, §3

[10] = target: T3, Histidine-tagged human CD3e protein; test: SPR (Biacore), human CD3e; remark: listed apart in the source
[11] = target: T2, human CD3e (T-cell surface glycoprotein …); test: flow cytometry, human PBMC, antibody 0.1 µg/mL, anti-human IgG Fc-Alexa Fluor647 (1:500), anti-hTcRβ-PerCP (1:30)
Method: as §1, §2, §3

[12] = target: T2, human CD3e (T-cell surface glycoprotein …); test: flow cytometry, human PBMC, antibody 10 µg/mL, anti-human IgG Fc-Alexa Fluor647 (1:500), anti-hTcRβ-PerCP (1:30)
Method: as §1
A 96-well plate was prepared. 25 ul of cell suspension was added to each well. Anti-hCD3e antibodies with different combinations of humanized 1B1 heavy chain variants and humanized 1B1 light chain variants were diluted to 20 ug/ml (2×) in PBS, and were added to the 96-well plate. The cells and the antibodies were incubated. After centrifuge, the residues were discarded. The samples were washed again. 25 ul of PBS was then added to each well to resuspend cells.
as §3

Binder | upper left quadrant, percent of cells AF647+ / hTcRβ-PerCP- [7] | upper right quadrant, percent of cells AF647+ / hTcRβ-PerCP+ [7] | EC50, luciferase of Jurkat-Luc-NFAT cells; antibody from supernatant [8] | upper left quadrant, percent of cells AF647+ / hTcRβ-PerCP- [9] | upper right quadrant, percent of cells AF647+ / hTcRβ-PerCP+ [9] | Kd [10] | koff [10] | kon [10] | upper left quadrant, percent of cells AF647+ / hTcRβ-PerCP- [11] | upper right quadrant, percent of cells AF647+ / hTcRβ-PerCP+ [11] | upper left quadrant, percent of cells AF647+ / hTcRβ-PerCP- [12] | upper right quadrant, percent of cells AF647+ / hTcRβ-PerCP+ [12] | further results
B1 | 47% | 2.56% |  |  |  |  |  |  |  |  |  |  | upper left quadrant, percent of cells AF647+ / hTcRβ-PerCP- [1]: 2.53%; upper right quadrant, percent of cells AF647+ / hTcRβ-PerCP+ [1]: 11.6%; upper left quadrant, percent of cells AF647+ / hTcRβ-PerCP- [2]: 10.8%; upper right quadrant, percent of cells AF647+ / hTcRβ-PerCP+ [2]: 57.8%; EC50, luciferase of Jurkat-Luc-NFAT cells; antibody from supernatant [3]: 0.272 mg/L; EC50, luciferase of Jurkat-Luc-NFAT cells; purified antibody [3]: 0.726 mg/L; upper left quadrant, percent of cells AF647+ / hTcRβ-PerCP- [4]: 13.5%; upper right quadrant, percent of cells AF647+ / hTcRβ-PerCP+ [4]: 75.8%; Kd [5]: 5.18 nM; koff [5]: 0.000298 s⁻¹; kon [5]: 57500 M⁻¹ s⁻¹; Kd [6]: 2.14 nM; koff [6]: 0.000127 s⁻¹; kon [6]: 59300 M⁻¹ s⁻¹
B2 | 78.8% | 18.3% | > 3.06 mg/L | 11% | 61.2% | 1.37 nM | 0.000914 s⁻¹ | 665000 M⁻¹ s⁻¹ | 11.8% | 55.5% | 7.75% | 65.2% | 
B3 | 89.5% | 7.53% | > 3.08 mg/L | 11.4% | 58.1% | 2.96 nM | 0.00062 s⁻¹ | 209000 M⁻¹ s⁻¹ | 10.2% | 57.7% | 9.23% | 62% | 
B4 | 87.1% | 10.1% | > 4.54 mg/L | 10.2% | 61.9% | 1.16 nM | 0.000583 s⁻¹ | 502000 M⁻¹ s⁻¹ | 11.9% | 54.7% | 10.7% | 62.4% | 
B5 | 73.2% | 24.4% | > 3 mg/L | 10.4% | 61.7% | 0.959 nM | 0.000614 s⁻¹ | 640000 M⁻¹ s⁻¹ | 12.6% | 54% | 11% | 59.7% | 
B6 | 78.5% | 18.3% | 2.4 mg/L | 10.2% | 64.4% | 0.809 nM | 0.000653 s⁻¹ | 807000 M⁻¹ s⁻¹ | 13.1% | 54.1% | 8.51% | 64.1% | 
